Experimental data from paper PMC6694833, “Rational Design of Zika Virus Subunit Vaccine with Enhanced Efficacy” (Journal of Virology, 2019).

B1: ZV-2, ZIKV EDIII-specific nonneutralizing mouse MAb (antibody, V domains shown)
VH: QVQLQESGAELMKPGASVKLSCKTSGYTFIGYWIEWLKQRPGHGLEWVGEIFPGSGRTKYNEKFKGRATFTADTSSNMAYMQLSSLTTEDSAIYYCARYYYGSYYALDYWGQGTSVTVSS
VL: DIVMTQSPSSLSVSAGEKVTLSCKSSQSLLHSGNQKNYLAWYQQKPGQAPKLLIYGASTRESGVPDRFTGSGSGTDFTLTISSVQAEDLAVYYCQNDHSYPLTFGAGTKLELK
notes: also called MAb ZV-2; source: bought: BEI Resources
B2: ZV-67, ZIKV EDIII-specific neutralizing MAb (antibody, V domains shown)
VH: QAQLQQSGTGLARPGASVKLSCKASGYTFTSYGISWVTQRAGQGLEWIGVIYPRSGNTYYNEKFRGKATLTADKSSSSAYMELRGLTAEDSAVYFCARENYGSVYWGQGTTLTVSS
VL: DIVMTQSQKFMSTSVGDRVSITCKASQNVGTAVAWYQQKPGQSPKLLIYSASNRYTGVPDRFTGSGSGTDFTLTISNMQSEDLADYFCQQFSSYPYTFGGGTKLEIK
notes: also called MAb ZV-67; human MAb ZV-67; source: bought: Absolute Antibody

Legend:
Z004 = test: ELISA; settings: read at the highest MAb concentration plotted (about 2000 ng/ml, estimated from the x axis); parent: est. 3.5; read off a plot
ZKA64-LALA = test: ELISA; settings: read at the highest MAb concentration plotted (about 2000 ng/ml, estimated from the x axis); parent: est. 3.4; read off a plot
[1] = target: ZV-2, ZIKV EDIII-specific nonneutralizing mouse MAb; test: ELISA; settings: read at the highest MAb concentration plotted (about 500 ng/ml, estimated from the x axis); parent: est. 3.6; read off a plot
ZV-54 = test: ELISA; settings: read at the highest MAb concentration plotted (about 250 ng/ml, estimated from the x axis); parent: est. 3.7; read off a plot
[2] = target: ZV-67, ZIKV EDIII-specific neutralizing MAb; test: ELISA; settings: read at the highest MAb concentration plotted (about 500 ng/ml, estimated from the x axis); parent: est. 3.6; read off a plot
[3] = target: T1, ZIKV EDIII protein containing residues 298 to 409 (wild type) fused with a C-terminal human IgG1 Fc tag (Zika virus, strain ZikaSPH2015 (GenBank …, UniProt A0A0U3FSM8, strain)); test: ELISA; plates coated with wild-type or mutant ZIKV EDIII protein overnight at 4°C, blocked with 2% fat-free milk in PBST; serially diluted MAbs, then HRP-conjugated anti-mouse IgG-Fab or anti-human IgG-Fab, 1 h at 37°C; absorbance at 450 nm; settings: both partners purified
T1 construct: also called wild-type EDIII; WT EDIII; not shown: Fc (human IgG1), C-terminal, kept

Molecule	response (Z004)	response (ZKA64-LALA)	response [1]	response (ZV-54)	response [2]	binding result [3]
ZIKV EDIII protein containing residues 298 to 409 (wild type) fused with a C-terminal human IgG1 Fc tag M375N; E377T	3.5 A450	3.4 A450	0.15 A450	3.7 A450	3.6 A450	
B1						binds
B2						binds
